Experimental data published in patent US20080152587A1.

Target: mouse uPAR on the surface of NCTC L929 cells (mouse) (UniProt P35456)
Assay: FACS, NCTC L929 mouse cells, secondary alone

Sequence of mouse uPAR on the surface of NCTC L929 cells (mouse) (P35456 24-298): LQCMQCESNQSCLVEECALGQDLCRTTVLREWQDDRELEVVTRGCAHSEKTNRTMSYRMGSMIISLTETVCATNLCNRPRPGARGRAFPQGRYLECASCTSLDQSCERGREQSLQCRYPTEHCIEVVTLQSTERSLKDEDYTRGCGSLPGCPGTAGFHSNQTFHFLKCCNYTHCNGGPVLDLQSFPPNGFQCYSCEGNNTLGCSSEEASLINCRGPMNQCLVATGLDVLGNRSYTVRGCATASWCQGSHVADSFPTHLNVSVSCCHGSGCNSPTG

X Geo mean | Substance
13.1 | secondary antibody alone for rat antibodies
7.63 | secondary antibody alone, Cy5-labeled goat anti-human IgG Fc
3.22 | secondary antibody alone for mouse antibodies
